According to article PMC314469, “Protein Interaction Networks by Proteome Peptide Scanning” (PLoS Biology, 2004):

Tests used:
Test in all cases: SPOT array
[1] = biological target: T1, Boi1 SH3 (BOI1_YEAST), P38041
T1 chain: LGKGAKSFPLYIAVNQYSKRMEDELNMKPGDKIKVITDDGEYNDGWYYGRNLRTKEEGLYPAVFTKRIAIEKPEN

[2] = biological target: T2, Boi2 SH3 (BOI2_YEAST), P39969
T2 chain: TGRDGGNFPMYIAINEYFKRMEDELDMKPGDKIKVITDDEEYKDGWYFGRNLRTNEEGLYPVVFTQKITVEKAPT

[3] = biological target: T3, Myo5 SH3 (MYO5_YEAST), Q04439
T3 chain: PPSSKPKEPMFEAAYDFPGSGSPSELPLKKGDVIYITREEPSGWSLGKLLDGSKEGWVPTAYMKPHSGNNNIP

[4] = biological target: T4, Rvs167 SH3 (RV167_YEAST), P39743
T4 chain: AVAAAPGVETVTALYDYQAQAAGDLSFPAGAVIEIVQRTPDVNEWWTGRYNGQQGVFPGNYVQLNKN

[5] = biological target: Sho1 SH3 (SHO1_YEAST), P40073
Chain of Sho1 SH3 (SHO1_YEAST), P40073 (P40073 295-366): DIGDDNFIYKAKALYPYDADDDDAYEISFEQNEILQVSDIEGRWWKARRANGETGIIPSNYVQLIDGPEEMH

[6] = biological target: T5, Yfr024 SH3 (LSB3_YEAST), P43603
T5 chain: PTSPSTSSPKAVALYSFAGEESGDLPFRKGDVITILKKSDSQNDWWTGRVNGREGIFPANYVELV

[7] = biological target: T6, Yhr016c SH3 (YSC84_YEAST), P32793
T6 chain: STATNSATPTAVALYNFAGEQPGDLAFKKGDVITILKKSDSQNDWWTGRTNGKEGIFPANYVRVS

B1: YDL197C 461-474 (peptide)
chain: SLTLKTLPRVPTDS
[1]
  normalised SPOT signal, Boehringer light units (BLU); mean over the file's lines of this peptide: 75.5
[2]
  normalised SPOT signal, Boehringer light units (BLU); mean over the file's lines of this peptide: 28.1
[3]
  normalised SPOT signal, Boehringer light units (BLU); mean over the file's lines of this peptide: 212
[4]
  normalised SPOT signal, Boehringer light units (BLU); mean over the file's lines of this peptide: 163
[5]
  normalised SPOT signal, Boehringer light units (BLU); mean over the file's lines of this peptide: 31400
[6]
  normalised SPOT signal, Boehringer light units (BLU); mean over the file's lines of this peptide: 188
[7]
  normalised SPOT signal, Boehringer light units (BLU); mean over the file's lines of this peptide: 28.2

B2: YNL239W 287-300 (peptide)
chain: SKYAKLDPSTPVSL
[1]
  normalised SPOT signal, Boehringer light units (BLU); mean over the file's lines of this peptide: 101
[2]
  normalised SPOT signal, Boehringer light units (BLU); mean over the file's lines of this peptide: 39.1
[3]
  normalised SPOT signal, Boehringer light units (BLU); mean over the file's lines of this peptide: 457
[4]
  normalised SPOT signal, Boehringer light units (BLU); mean over the file's lines of this peptide: 42.2
[5]
  normalised SPOT signal, Boehringer light units (BLU); mean over the file's lines of this peptide: 32.6
[6]
  normalised SPOT signal, Boehringer light units (BLU); mean over the file's lines of this peptide: 26.4
[7]
  normalised SPOT signal, Boehringer light units (BLU); mean over the file's lines of this peptide: 48.5

B3: YDL179W 224-237 (peptide)
chain: SLLAKYQPSLPLVE
[1]
  normalised SPOT signal, Boehringer light units (BLU); mean over the file's lines of this peptide: 44.7
[2]
  normalised SPOT signal, Boehringer light units (BLU); mean over the file's lines of this peptide: 76.8
[3]
  normalised SPOT signal, Boehringer light units (BLU); mean over the file's lines of this peptide: 162
[4]
  normalised SPOT signal, Boehringer light units (BLU); mean over the file's lines of this peptide: 68.6
[5]
  normalised SPOT signal, Boehringer light units (BLU); mean over the file's lines of this peptide: 58.4
[6]
  normalised SPOT signal, Boehringer light units (BLU); mean over the file's lines of this peptide: 57.4
[7]
  normalised SPOT signal, Boehringer light units (BLU); mean over the file's lines of this peptide: 46.8

B4: YDR028C 871-884 (peptide)
chain: SQKKKALPKQPKAS
[1]
  normalised SPOT signal, Boehringer light units (BLU); mean over the file's lines of this peptide: 1060
[2]
  normalised SPOT signal, Boehringer light units (BLU); mean over the file's lines of this peptide: 29.5
[3]
  normalised SPOT signal, Boehringer light units (BLU); mean over the file's lines of this peptide: 493
[4]
  normalised SPOT signal, Boehringer light units (BLU); mean over the file's lines of this peptide: 186
[5]
  normalised SPOT signal, Boehringer light units (BLU); mean over the file's lines of this peptide: 3210
[6]
  normalised SPOT signal, Boehringer light units (BLU); mean over the file's lines of this peptide: 307
[7]
  normalised SPOT signal, Boehringer light units (BLU); mean over the file's lines of this peptide: 61.2

B5: YPR128C 112-125 (peptide)
chain: SLKNRDGPITPSTI
[1]
  normalised SPOT signal, Boehringer light units (BLU); mean over the file's lines of this peptide: 60.2
[2]
  normalised SPOT signal, Boehringer light units (BLU); mean over the file's lines of this peptide: 67.9
[3]
  normalised SPOT signal, Boehringer light units (BLU); mean over the file's lines of this peptide: 215
[4]
  normalised SPOT signal, Boehringer light units (BLU); mean over the file's lines of this peptide: 232
[5]
  normalised SPOT signal, Boehringer light units (BLU); mean over the file's lines of this peptide: 25.7
[6]
  normalised SPOT signal, Boehringer light units (BLU); mean over the file's lines of this peptide: 161
[7]
  normalised SPOT signal, Boehringer light units (BLU); mean over the file's lines of this peptide: 14.1

B6: YDR345C 274-287 (peptide)
chain: SKVNKVAPDHPFIQ
[1]
  normalised SPOT signal, Boehringer light units (BLU); mean over the file's lines of this peptide: 122
[2]
  normalised SPOT signal, Boehringer light units (BLU); mean over the file's lines of this peptide: 9.5
[3]
  normalised SPOT signal, Boehringer light units (BLU); mean over the file's lines of this peptide: 72.1
[4]
  normalised SPOT signal, Boehringer light units (BLU); mean over the file's lines of this peptide: 12.9
[5]
  normalised SPOT signal, Boehringer light units (BLU); mean over the file's lines of this peptide: 0
[6]
  normalised SPOT signal, Boehringer light units (BLU); mean over the file's lines of this peptide: 13.5
[7]
  normalised SPOT signal, Boehringer light units (BLU); mean over the file's lines of this peptide: 7.1

B7: YJL095W 840-853 (peptide)
chain: SRSKRSKPLPPQLL
[1]
  normalised SPOT signal, Boehringer light units (BLU); mean over the file's lines of this peptide: 685
[2]
  normalised SPOT signal, Boehringer light units (BLU); mean over the file's lines of this peptide: 10.6
[3]
  normalised SPOT signal, Boehringer light units (BLU); mean over the file's lines of this peptide: 884
[4]
  normalised SPOT signal, Boehringer light units (BLU); mean over the file's lines of this peptide: 159
[5]
  normalised SPOT signal, Boehringer light units (BLU); mean over the file's lines of this peptide: 1740
[6]
  normalised SPOT signal, Boehringer light units (BLU); mean over the file's lines of this peptide: 411
[7]
  normalised SPOT signal, Boehringer light units (BLU); mean over the file's lines of this peptide: 10.4

B8: YPL083C 302-315 (peptide)
chain: SNFKKRDPGLPDFQ
[1]
  normalised SPOT signal, Boehringer light units (BLU); mean over the file's lines of this peptide: 238
[2]
  normalised SPOT signal, Boehringer light units (BLU); mean over the file's lines of this peptide: 6.1
[3]
  normalised SPOT signal, Boehringer light units (BLU); mean over the file's lines of this peptide: 161
[4]
  normalised SPOT signal, Boehringer light units (BLU); mean over the file's lines of this peptide: 89.5
[5]
  normalised SPOT signal, Boehringer light units (BLU); mean over the file's lines of this peptide: 36.9
[6]
  normalised SPOT signal, Boehringer light units (BLU); mean over the file's lines of this peptide: 212
[7]
  normalised SPOT signal, Boehringer light units (BLU); mean over the file's lines of this peptide: 49.4

B9: YBR017C 618-631 (peptide)
chain: SLGERFMPMAPEVY
[1]
  normalised SPOT signal, Boehringer light units (BLU); mean over the file's lines of this peptide: 49.7
[2]
  normalised SPOT signal, Boehringer light units (BLU); mean over the file's lines of this peptide: 51.3
[3]
  normalised SPOT signal, Boehringer light units (BLU); mean over the file's lines of this peptide: 140
[4]
  normalised SPOT signal, Boehringer light units (BLU); mean over the file's lines of this peptide: 32.8
[5]
  normalised SPOT signal, Boehringer light units (BLU); mean over the file's lines of this peptide: 3.7
[6]
  normalised SPOT signal, Boehringer light units (BLU); mean over the file's lines of this peptide: 15.8
[7]
  normalised SPOT signal, Boehringer light units (BLU); mean over the file's lines of this peptide: 7.3

B10: YPL141C 758-771 (peptide)
chain: SMDSKRKPSPPSQR
[1]
  normalised SPOT signal, Boehringer light units (BLU); mean over the file's lines of this peptide: 1110
[2]
  normalised SPOT signal, Boehringer light units (BLU); mean over the file's lines of this peptide: 110
[3]
  normalised SPOT signal, Boehringer light units (BLU); mean over the file's lines of this peptide: 510
[4]
  normalised SPOT signal, Boehringer light units (BLU); mean over the file's lines of this peptide: 371
[5]
  normalised SPOT signal, Boehringer light units (BLU); mean over the file's lines of this peptide: 89.1
[6]
  normalised SPOT signal, Boehringer light units (BLU); mean over the file's lines of this peptide: 824
[7]
  normalised SPOT signal, Boehringer light units (BLU); mean over the file's lines of this peptide: 171

B11: YNL152W 155-168 (peptide)
chain: SMAMRPIPPLPTES
[1]
  normalised SPOT signal, Boehringer light units (BLU); mean over the file's lines of this peptide: 37
[2]
  normalised SPOT signal, Boehringer light units (BLU); mean over the file's lines of this peptide: 49
[3]
  normalised SPOT signal, Boehringer light units (BLU); mean over the file's lines of this peptide: 1330
[4]
  normalised SPOT signal, Boehringer light units (BLU); mean over the file's lines of this peptide: 32500
[5]
  normalised SPOT signal, Boehringer light units (BLU); mean over the file's lines of this peptide: 242
[6]
  normalised SPOT signal, Boehringer light units (BLU); mean over the file's lines of this peptide: 50600
[7]
  normalised SPOT signal, Boehringer light units (BLU); mean over the file's lines of this peptide: 46600

B12: YEL050C 18-31 (peptide)
chain: SLISKRNPSYPYGI
[1]
  normalised SPOT signal, Boehringer light units (BLU); mean over the file's lines of this peptide: 274
[2]
  normalised SPOT signal, Boehringer light units (BLU); mean over the file's lines of this peptide: 53.2
[3]
  normalised SPOT signal, Boehringer light units (BLU); mean over the file's lines of this peptide: 483
[4]
  normalised SPOT signal, Boehringer light units (BLU); mean over the file's lines of this peptide: 45.7
[5]
  normalised SPOT signal, Boehringer light units (BLU); mean over the file's lines of this peptide: 159
[6]
  normalised SPOT signal, Boehringer light units (BLU); mean over the file's lines of this peptide: 79.2
[7]
  normalised SPOT signal, Boehringer light units (BLU); mean over the file's lines of this peptide: 10.1

B13: YNL224C 454-467 (peptide)
chain: SLIPKIEPAEPTYS
[1]
  normalised SPOT signal, Boehringer light units (BLU); mean over the file's lines of this peptide: 170
[2]
  normalised SPOT signal, Boehringer light units (BLU); mean over the file's lines of this peptide: 25.6
[3]
  normalised SPOT signal, Boehringer light units (BLU); mean over the file's lines of this peptide: 85.4
[4]
  normalised SPOT signal, Boehringer light units (BLU); mean over the file's lines of this peptide: 41.8
[5]
  normalised SPOT signal, Boehringer light units (BLU); mean over the file's lines of this peptide: 33.4
[6]
  normalised SPOT signal, Boehringer light units (BLU); mean over the file's lines of this peptide: 1
[7]
  normalised SPOT signal, Boehringer light units (BLU); mean over the file's lines of this peptide: 8.7
